In the Human Domainome abundance scans (Beltran et al. 2025) one finds abundance fitness data, which are given here for 36 variants.

The labels stand for the following.
B1: Gamma-crystallin C, residues 4 to 79; numbered along this chain, P07315 (parent)
chain: ITFYEDRAFQGRSYETTTDCPNLQPYFSRCNSIRVESGCWMLYERPNYQGQQYLLRRGEYPDYQQWMGLSDSIRSC

± gives the uncertainty stated by the source.

In this data set the parent is B1. Put plainly: abundance fitness (aPCA) (normalised: wild type 0, dead -1); higher = more abundant; growth selection in yeast, the domain comes from the species named. The conditions noted are these: Homo sapiens.
As to ITFYEDRAFQGRSYETTTDCPNTQPYFSRCNSIRVESGCWMLYERPNYQGQQYLLRRGEYPDYQQWMGLSDSIRSC, the abundance fitness was -0.081 ± 0.12.

As for ITFYEDRAFQGRSYETTTDCPNWQPYFSRCNSIRVESGCWMLYERPNYQGQQYLLRRGEYPDYQQWMGLSDSIRSC, the abundance fitness was -0.771 ± 0.26.

For ITFYEDRAFQGRSYETTTDCPNEQPYFSRCNSIRVESGCWMLYERPNYQGQQYLLRRGEYPDYQQWMGLSDSIRSC, the abundance fitness is -0.617 ± 0.16.

Take ITFYEDRAFQGRSYETTTDCPNRQPYFSRCNSIRVESGCWMLYERPNYQGQQYLLRRGEYPDYQQWMGLSDSIRSC: the abundance fitness is -1.01 ± 0.23.

Consider ITFYEDRAFQGRSYETTTDCPNGQPYFSRCNSIRVESGCWMLYERPNYQGQQYLLRRGEYPDYQQWMGLSDSIRSC, for which the abundance fitness is -0.727 ± 0.12.

Regarding ITFYEDRAFQGRSYETTTDCPNQQPYFSRCNSIRVESGCWMLYERPNYQGQQYLLRRGEYPDYQQWMGLSDSIRSC, the abundance fitness was -0.959 ± 0.34.

Regarding ITFYEDRAFQGRSYETTTDCPNMQPYFSRCNSIRVESGCWMLYERPNYQGQQYLLRRGEYPDYQQWMGLSDSIRSC, the abundance fitness was 0.027 ± 0.18.

In the case of ITFYEDRAFQGRSYETTTDCPNIQPYFSRCNSIRVESGCWMLYERPNYQGQQYLLRRGEYPDYQQWMGLSDSIRSC, the abundance fitness is -0.059 ± 0.31.

Regarding ITFYEDRAFQGRSYETTTDCPNLQPSFSRCNSIRVESGCWMLYERPNYQGQQYLLRRGEYPDYQQWMGLSDSIRSC, the abundance fitness stood at 0.045 ± 0.097.

As for ITFYEDRAFQGRSYETTTDCPNLQPIFSRCNSIRVESGCWMLYERPNYQGQQYLLRRGEYPDYQQWMGLSDSIRSC, the abundance fitness was found to be 0.237 ± 0.19.

For the variant ITFYEDRAFQGRSYETTTDCPNLQPTFSRCNSIRVESGCWMLYERPNYQGQQYLLRRGEYPDYQQWMGLSDSIRSC, the abundance fitness was -0.186 ± 0.097.

For the variant ITFYEDRAFQGRSYETTTDCPNLQPRFSRCNSIRVESGCWMLYERPNYQGQQYLLRRGEYPDYQQWMGLSDSIRSC, the abundance fitness was -0.031 ± 0.072.

Regarding ITFYEDRAFQGRSYETTTDCPNLQPNFSRCNSIRVESGCWMLYERPNYQGQQYLLRRGEYPDYQQWMGLSDSIRSC, the abundance fitness worked out at 0.052 ± 0.38.

On to ITFYEDRAFQGRSYETTTDCPNLQPGFSRCNSIRVESGCWMLYERPNYQGQQYLLRRGEYPDYQQWMGLSDSIRSC, for which the abundance fitness is 0.044 ± 0.084.

On to ITFYEDRAFQGRSYETTTDCPNLQPQFSRCNSIRVESGCWMLYERPNYQGQQYLLRRGEYPDYQQWMGLSDSIRSC, for which the abundance fitness was -0.077 ± 0.19.

ITFYEDRAFQGRSYETTTDCPNLQPFFSRCNSIRVESGCWMLYERPNYQGQQYLLRRGEYPDYQQWMGLSDSIRSC: the abundance fitness stood at 0.033 ± 0.12.

As to ITFYEDRAFQGRSYETTTDCPNLQPAFSRCNSIRVESGCWMLYERPNYQGQQYLLRRGEYPDYQQWMGLSDSIRSC, the abundance fitness came out at 0.064 ± 0.053.

For the variant ITFYEDRAFQGRSYETTTDCPNLQPVFSRCNSIRVESGCWMLYERPNYQGQQYLLRRGEYPDYQQWMGLSDSIRSC, the abundance fitness was determined as 0.046 ± 0.088.

With ITFYEDRAFQGRSYETTTDCPNLQPMFSRCNSIRVESGCWMLYERPNYQGQQYLLRRGEYPDYQQWMGLSDSIRSC, the abundance fitness is 0.078 ± 0.084.

For the variant ITFYEDRAFQGRSYETTTDCPNLQPDFSRCNSIRVESGCWMLYERPNYQGQQYLLRRGEYPDYQQWMGLSDSIRSC, the abundance fitness is -0.179 ± 0.23.

ITFYEDRAFQGRSYETTTDCPNLQPEFSRCNSIRVESGCWMLYERPNYQGQQYLLRRGEYPDYQQWMGLSDSIRSC: the abundance fitness is -0.138 ± 0.11.

For ITFYEDRAFQGRSYETTTDCPNLQPHFSRCNSIRVESGCWMLYERPNYQGQQYLLRRGEYPDYQQWMGLSDSIRSC, the abundance fitness is -0.082 ± 0.22.

Take ITFYEDRAFQGRSYETTTDCPNLQPKFSRCNSIRVESGCWMLYERPNYQGQQYLLRRGEYPDYQQWMGLSDSIRSC: the abundance fitness is -0.047 ± 0.13.

As for ITFYEDRAFQGRSYETTTDCPNLQPPFSRCNSIRVESGCWMLYERPNYQGQQYLLRRGEYPDYQQWMGLSDSIRSC, the abundance fitness is -0.046 ± 0.16.

For ITFYEDRAFQGRSYETTTDCPNLQPLFSRCNSIRVESGCWMLYERPNYQGQQYLLRRGEYPDYQQWMGLSDSIRSC, the abundance fitness turned out to be 0.037 ± 0.067.

In the case of ITFYEDRAFQGRSYETTTDCPLLQPYFSRCNSIRVESGCWMLYERPNYQGQQYLLRRGEYPDYQQWMGLSDSIRSC, the abundance fitness turned out to be 0.036 ± 0.076.

As to ITFYEDRAFQGRSYETTTDCPQLQPYFSRCNSIRVESGCWMLYERPNYQGQQYLLRRGEYPDYQQWMGLSDSIRSC, the abundance fitness was -0.046 ± 0.12.

For the variant ITFYEDRAFQGRSYETTTDCPRLQPYFSRCNSIRVESGCWMLYERPNYQGQQYLLRRGEYPDYQQWMGLSDSIRSC, the abundance fitness amounted to 0.016 ± 0.065.

ITFYEDRAFQGRSYETTTDCPWLQPYFSRCNSIRVESGCWMLYERPNYQGQQYLLRRGEYPDYQQWMGLSDSIRSC: the abundance fitness was -0.19 ± 0.094.

With ITFYEDRAFQGRSYETTTDCPTLQPYFSRCNSIRVESGCWMLYERPNYQGQQYLLRRGEYPDYQQWMGLSDSIRSC, the abundance fitness was 0.097 ± 0.11.

ITFYEDRAFQGRSYETTTDCPVLQPYFSRCNSIRVESGCWMLYERPNYQGQQYLLRRGEYPDYQQWMGLSDSIRSC: the abundance fitness was 0.026 ± 0.06.

On to ITFYEDRAFQGRSYETTTDCPSLQPYFSRCNSIRVESGCWMLYERPNYQGQQYLLRRGEYPDYQQWMGLSDSIRSC, for which the abundance fitness was found to be 0.012 ± 0.08.

With ITFYEDRAFQGRSYETTTDCPKLQPYFSRCNSIRVESGCWMLYERPNYQGQQYLLRRGEYPDYQQWMGLSDSIRSC, the abundance fitness stood at 0.064 ± 0.072.

Consider ITFYEDRAFQGRSYETTTDCPYLQPYFSRCNSIRVESGCWMLYERPNYQGQQYLLRRGEYPDYQQWMGLSDSIRSC, for which the abundance fitness is 0.079 ± 0.14.

On to ITFYEDRAFQGRSYETTTDCPHLQPYFSRCNSIRVESGCWMLYERPNYQGQQYLLRRGEYPDYQQWMGLSDSIRSC, for which the abundance fitness is -0.176 ± 0.16.

Take ITFYEDRAFQGRSYETTTDCPGLQPYFSRCNSIRVESGCWMLYERPNYQGQQYLLRRGEYPDYQQWMGLSDSIRSC: the abundance fitness is -0.158 ± 0.085.
